From patent publication US20220162305A1 (IMCHECK THERAPEUTICS, published 2022)

B1: purified anti-BTN2A1 107G3 mAb (mouse hybridoma antibody) (antibody, V domains shown)
VH: QVQLKESGPGLVAPSQSLSITCTVSGFSLTNYVISWVRQPPGKGLEWLGVIWTGGDTNYNSALKSRLSISKDNSKSQVFLKMNSLQTGDTARYYCARGGQLGLRGYWGQGTLVTVSA
VL: DIVLTQSPASLAVSLGQRATISCRASKTVSSSGYSYMHWYQQKPGQPPKLLIYLASNLESGVPARFSGSGSGTDFTLNIHPVEEEDAATYYCQHSRDLPYAFGGGTKLEIK
notes: Mouse antibody purified from hybridoma; mouse IgG1 served as its isotype control; also called anti-BTN2A1 mAb 107G3
B2: chimeric anti-BTN2A mAb1 (101G5), chimeric IgG1 format (antibody, V domains shown)
VH: EVQLQQSGPELVKPGASVKISCKASGYSFTVYYMLWVKQSPEKSLEWIGEINPSTGGTTYNQKFKAKATLTVDKSSSTAYMQLKSLTSEDSAVYYCARGPSFYALDYWGQGTSVTVSS
VL: EIVLTQSPTTMAASPGEKITITCSATSSISSNYLHWYRHKPGFSPKLLIYRTSNLASGVPGRFSGSGSGTSYSLTIGTMEAEDVATYYCQQGSSIPRTFGGGTKLEIK
notes: Chimeric IgG1 (isotype control human IgG1), made in HEK-293 cells; also called anti-BTN2A 101G5
B3: chimeric anti-BTN2A mAb2 (107G3), chimeric IgG1 format (antibody, V domains shown)
VH: QVQLKESGPGLVAPSQSLSITCTVSGFSLTNYVISWVRQPPGKGLEWLGVIWTGGDTNYNSALKSRLSISKDNSKSQVFLKMNSLQTGDTARYYCARGGQLGLRGYWGQGTLVTVSA
VL: DIVLTQSPASLAVSLGQRATISCRASKTVSSSGYSYMHWYQQKPGQPPKLLIYLASNLESGVPARFSGSGSGTDFTLNIHPVEEEDAATYYCQHSRDLPYAFGGGTKLEIK
notes: Murine VH and VK cloned into heavy and light chain expression vectors, chimeric IgG1 (isotype control human IgG1), made in HEK-293 cells; also called anti-BTN2A 107G3

Experiments:
[1] = target: T1, human BTN2A1-CFP fusion protein expressed on HEK-293T BTN2 KO cells (human, UniProt Q7KYR7 29-527); assay: flow cytometry, MFI on CFP+ HEK-293T BTN2 KO cells transfected with BTN2A1-CFP, 5 ng/mL to 75 µg/mL mAb
T1 construct: not shown: CFP tag; printed as 'CFP(Nter)-fusion' and as 'BTN2A1-CFP'
T1 sequence: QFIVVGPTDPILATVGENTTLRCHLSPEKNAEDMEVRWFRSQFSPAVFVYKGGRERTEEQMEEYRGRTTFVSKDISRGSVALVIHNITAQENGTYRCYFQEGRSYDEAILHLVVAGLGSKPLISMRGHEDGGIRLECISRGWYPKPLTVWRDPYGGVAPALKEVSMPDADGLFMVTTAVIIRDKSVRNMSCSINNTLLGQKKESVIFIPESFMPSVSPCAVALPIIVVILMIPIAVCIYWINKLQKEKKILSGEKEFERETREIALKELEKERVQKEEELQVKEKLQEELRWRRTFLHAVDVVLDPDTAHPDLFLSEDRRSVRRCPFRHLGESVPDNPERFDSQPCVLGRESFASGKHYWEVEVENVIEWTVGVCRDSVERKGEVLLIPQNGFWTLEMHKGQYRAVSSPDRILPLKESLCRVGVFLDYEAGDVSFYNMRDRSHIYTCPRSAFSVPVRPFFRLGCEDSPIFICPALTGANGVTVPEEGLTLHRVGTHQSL

[2] = target: T2, recombinant human BTN2A1-Fc fusion protein (GTP Technologies) (human, UniProt Q7KYR7 29-248, biotinylated with EZ-Link NHS-PEG4 biotin for the Octet affinity assay (sites not given)); assay: ELISA, huBTN2A1-Fc coated at 5 µg/mL, mAb titrated, goat anti-mouse IgG HRP, absorbance at 405 nm
T2 construct: Bought soluble Fc fusion; Used biotinylated in Octet, unmodified in ELISA and cross-linking MS; also called rhBTN2A1-Fc; huBTN2A1-Fc; not shown: Fc part of the bought fusion protein
T2 sequence: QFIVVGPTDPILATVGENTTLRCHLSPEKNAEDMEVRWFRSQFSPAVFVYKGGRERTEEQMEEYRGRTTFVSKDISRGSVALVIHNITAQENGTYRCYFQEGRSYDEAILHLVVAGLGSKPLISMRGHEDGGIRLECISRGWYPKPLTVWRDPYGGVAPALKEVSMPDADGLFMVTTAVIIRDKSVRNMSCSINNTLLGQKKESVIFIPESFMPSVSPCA

[3] = target: T3, biotinylated recombinant human BTN2A2-Fc (R&D Systems) (human, UniProt Q8WVV5 33-265, limits assumed, biotinylated (sites not given)); assay: BLI (Octet Red96), chimeric mAb on FAB2G sensors, biotinylated rhBTN2A2-Fc as analyte, 30 °C, 2:1 model
T3 construct: Bought soluble Fc fusion; also called rhBTN2A2-Fc; not shown: Fc part of the bought fusion protein
T3 sequence: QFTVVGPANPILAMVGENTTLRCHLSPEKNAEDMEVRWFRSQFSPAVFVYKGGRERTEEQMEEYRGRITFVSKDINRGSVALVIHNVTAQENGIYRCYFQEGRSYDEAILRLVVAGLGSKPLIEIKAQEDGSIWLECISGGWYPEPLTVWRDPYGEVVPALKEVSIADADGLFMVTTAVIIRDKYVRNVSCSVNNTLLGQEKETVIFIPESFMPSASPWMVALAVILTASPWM

[4] = target: T2, recombinant human BTN2A1-Fc fusion …; assay: BLI (Octet Red96), biotinylated rhBTN2A1-Fc on streptavidin sensors, chimeric mAb as analyte, 30 °C, 1:1 model
Procedure: Affinity and binning experiments were performed on an Octet Red96 platform (Fortebio/PALL), system based on Bio-layer interferometry (BLI) technology. For affinity experiments, recombinant human (rh)BTN2A1-Fc (GTP) was biotinylated using EZ-Link™ NHS-PEG4 Biotinylation Kit according to manufacturer's instructions, and biotinylated rhBTN2A2-Fc was purchased from R&D Systems. […] For BTN2A2 affinity assays, chimeric anti-BTN2A antibodies were loaded into FAB2G sensors (anti human CH1; Fortebio) as described above, and biotinylated rhBTN2A2-Fc was used as analyte. In both cases, analytes remained in solution and their working concentrations were diluted in Kinetic Buffer 10× (ForteBio). […] All runs (including loading, equilibration, association/dipping of sensors into analyte, dissociation and regeneration) were performed at 30° C. with shaking 1000 rpm. Analysis was performed using a 1:1 or 2:1 Langmuir model (for BTN2A1 or BTN2A2, respectively) calculated by Octet software, which allowed a better fitting calculation.

[5] = target: T3, biotinylated recombinant human …; assay: BLI (Octet Red96), chimeric mAb on FAB2G sensors, biotinylated rhBTN2A2-Fc as analyte
Procedure: After generation of the reference anti-BTN2A antibodies in chimeric IgG1 format, affinities for the 2 different isoforms of this target (BTN2A1 and BTN2A2) were evaluated and competition assays were performed to determine whether these mAbs recognized the same epitope region of BTN2A1. Affinity and binning experiments were performed on an Octet Red96 platform (Fortebio/PALL), system based on Bio-layer interferometry (BLI) technology. For affinity experiments, recombinant human (rh)BTN2A1-Fc (GTP) was biotinylated using EZ-Link™ NHS-PEG4 Biotinylation Kit according to manufacturer's instructions, and biotinylated rhBTN2A2-Fc was purchased from R&D Systems. […] For BTN2A2 affinity assays, chimeric anti-BTN2A antibodies were loaded into FAB2G sensors (anti human CH1; Fortebio) as described above, and biotinylated rhBTN2A2-Fc was used as analyte. In both cases, analytes remained in solution and their working concentrations were diluted in Kinetic Buffer 10× (ForteBio). […] All runs (including loading, equilibration, association/dipping of sensors into analyte, dissociation and regeneration) were performed at 30° C. with shaking 1000 rpm. Analysis was performed using a 1:1 or 2:1 Langmuir model (for BTN2A1 or BTN2A2, respectively) calculated by Octet software, which allowed a better fitting calculation.

Row | Binder | EC50 [1] [µg/mL] | EC50 [2] [nM] | Kd [3] [nM] | Kd [4] [nM] | binding result [5]
1 | B1 | 0.32 |  |  |  | 
2 | B2 |  | 0.82 | 4.4 | 0.041 | 
3 | B3 |  | 0.56 |  | 0.41 | no binding (tested: 200 nM)
